The results in this text go back to the supplement of paper PMC7877785.

± gives the uncertainty stated by the source.

A short description of the data set: self-splicing fitness, log relative to wild type (ln ratio); higher = more splicing; Tetrahymena group I intron in knt gene, E. coli kanamycin selection, DiMSum; sequences stand for … in CUCUCU…GGAGGGAAAAGUUAUCAGGCAUGCACCUGGUAGCUAGUCUUUAAACCAAUAGAUUGCAUCGGUUUAAAAGGCAAGACCGUCAAAUUGCGGGAAAGGGGUCAACAGCCGUUCAGUACCAAGUCUCAGGGGAAACUUUGAGAUGGCCUUGCAAAGGGUAUGGUAAUAAGCUGACGGACAUGGUCCUAACCACGCAGCCAAGUCCUAAGUCAACAGAUCUUCUGUUGAUAUGGAUGCAGUUCACAGACUAAAUGUCGGUCGGGGAAGAUGUAUUCUUCUCAUAAGAUAUAGUCGGACCUCUCCUUAAUGGGAGCUAGCGGAUGAAGUGAUGCAACACUGGAGCCGCUGGGAACUAAUUUGUAUGCGAAAGUAUAUUGAUUAGUUUUGGAGUACUCGUGGUCG
The essentials: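 Pooled colonies went to amplicon sequencing on an Illumina HiSeq 2500 after six replicate transformations. The plates were LB agar with 100 μg/mL carbenicillin, 50 μM IPTG and 0.2% rhamnose, with or without 25 μg/mL kanamycin, incubated overnight at 37°C or 30°C. The E. coli BL21(DE3) library had all eight P1ex-region intron nucleotides randomised, the intron placed in the knt kanamycin-resistance gene on pET-22b(+). DiMSum fitness is the error-weighted combination of replicate fold changes, kanamycin against none, normalised to wild type.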

Turning to GACCAGCAAUAUUACGGUGC, the “self-splicing fitness (ln)” value by setting is: (30 °C) -2.31 ± 0.067; (37 °C) -2.09 ± 0.09.

ACAUAGCAAUAUUACGAUAC: the “self-splicing fitness (ln)” value was -3.6 ± 0.23 (30 °C) and -2.2 ± 0.25 (37 °C). In the same order, the values of GAGAAGCAAUAUUACGUUGC are -3.47 ± 0.24 and -3.31 ± 0.31. For CCUCAGCAAUAUUACGGGAA, the “self-splicing fitness (ln)” value was -2.4 ± 0.19 (30 °C) and -3.35 ± 0.3 (37 °C). The corresponding values for GGAGAGCAAUAUUACGUCUU are -4.08 ± 0.28 and -3.23 ± 0.38. The corresponding values for AGCAAGCAAUAUUACGACUC are -1.12 ± 0.072 and -0.865 ± 0.08. Consider UGUUAGCAAUAUUACGCAAA, for which the “self-splicing fitness (ln)” value (30 °C) is -0.989 ± 0.22 and the “self-splicing fitness (ln)” value (37 °C) was -0.62 ± 0.32. For UGUCAGCAAUAUUACGUGAA, the “self-splicing fitness (ln)” value runs as follows: (30 °C) -0.122 ± 0.068; (37 °C) 0.427 ± 0.083. Regarding ACCGAGCAAUAUUACGAAAC, the “self-splicing fitness (ln)” value (37 °C) is -2.95 ± 0.37. For the sequence CUCAAGCAAUAUUACGUAUG, the “self-splicing fitness (ln)” value (30 °C) was -2.91 ± 0.099 and the “self-splicing fitness (ln)” value (37 °C) is -2.61 ± 0.12. The corresponding values for UCACAGCAAUAUUACGUAAA are -2.14 ± 0.069 and -1.18 ± 0.084. As to GGCGAGCAAUAUUACGGCAU, the “self-splicing fitness (ln)” value is, setting by setting: (30 °C) -0.523 ± 0.13; (37 °C) 0.0629 ± 0.15. As for AAGUAGCAAUAUUACGGCCC, the “self-splicing fitness (ln)” value runs as follows: (30 °C) -0.413 ± 0.17; (37 °C) -1.15 ± 0.26. In the same order, the values of CUGUAGCAAUAUUACGUGAC are -0.572 ± 0.098 and -0.0647 ± 0.16. As for GGGAAGCAAUAUUACGUGUG, the “self-splicing fitness (ln)” value is, setting by setting: (30 °C) -1.15 ± 0.097; (37 °C) -1.24 ± 0.13. The corresponding values for GAAUAGCAAUAUUACGGGUG are -3.74 ± 0.15 and -1.03 ± 0.095. Consider AUAGAGCAAUAUUACGAUUU, for which the “self-splicing fitness (ln)” value is -0.251 ± 0.081 (30 °C) and 0.0148 ± 0.1 (37 °C). Turning to UAAGAGCAAUAUUACGUGAG, the “self-splicing fitness (ln)” value was -1.37 ± 0.13 (30 °C) and -0.181 ± 0.23 (37 °C). In the same order, the values of UCUUAGCAAUAUUACGCGAG are -2.25 ± 0.17 and -2.92 ± 0.28. In the case of CAAGAGCAAUAUUACGUGUG, the “self-splicing fitness (ln)” value (30 °C) was -2.56 ± 0.1 and the “self-splicing fitness (ln)” value (37 °C) is -1.5 ± 0.092. On to CAGUAGCAAUAUUACGCGCG, for which the “self-splicing fitness (ln)” value runs as follows: (30 °C) -0.327 ± 0.16; (37 °C) 0.324 ± 0.18.

For GAGCAGCAAUAUUACGCUAU, the “self-splicing fitness (ln)” value runs as follows: (30 °C) -2.73 ± 0.27; (37 °C) -1.93 ± 0.17. In the same order, the values of GUAAAGCAAUAUUACGUCAC are -2.16 ± 0.096 and -1.56 ± 0.12. Turning to AUCUAGCAAUAUUACGAGCU, the “self-splicing fitness (ln)” value runs as follows: (30 °C) -2.29 ± 0.17; (37 °C) -0.565 ± 0.17. Consider CCAUAGCAAUAUUACGAGUA, for which the “self-splicing fitness (ln)” value is, setting by setting: (30 °C) -3.41 ± 0.32; (37 °C) -2.06 ± 0.19.

For UGUUAGCAAUAUUACGGAUA, the “self-splicing fitness (ln)” value was -1.36 ± 0.13 (30 °C) and -1.45 ± 0.12 (37 °C). In the same order, the values of ACAUAGCAAUAUUACGUUAU are -4.28 ± 0.29 and -3.07 ± 0.2. In the same order, the values of GUCAAGCAAUAUUACGAGCC are -4.32 ± 0.25 and -2.26 ± 0.26. In the same order, the values of UAAAAGCAAUAUUACGAAAC are -2.8 ± 0.19 and -3.3 ± 0.43. As for GUGGAGCAAUAUUACGUCAU, the “self-splicing fitness (ln)” value by setting is: (30 °C) -4.2 ± 0.32; (37 °C) -3.24 ± 0.33. The corresponding values for UUGCAGCAAUAUUACGUGGA are -2.52 ± 0.18 and -1.27 ± 0.13.

On to GCUGAGCAAUAUUACGUCAU, for which the “self-splicing fitness (ln)” value (30 °C) is -3.26 ± 0.43 and the “self-splicing fitness (ln)” value (37 °C) was -0.856 ± 0.3. In the same order, the values of GAUAAGCAAUAUUACGUUAG are -5.21 ± 0.45 and -2.27 ± 0.22. The corresponding values for CUCGAGCAAUAUUACGUCGG are -1.37 ± 0.15 and -0.674 ± 0.21. The corresponding values for AUGCAGCAAUAUUACGGUUA are -1.11 ± 0.079 and -0.0917 ± 0.071. As to UACGAGCAAUAUUACGUAUG, the “self-splicing fitness (ln)” value by setting is: (30 °C) -3.49 ± 0.23; (37 °C) -3.34 ± 0.24. In the same order, the values of AGCUAGCAAUAUUACGUUGC are -3.91 ± 0.25 and -3.13 ± 0.28. In the same order, the values of UCCUAGCAAUAUUACGACCU are -3.41 ± 0.48 and -1.76 ± 0.31.

Regarding GUUCAGCAAUAUUACGCGCA, the “self-splicing fitness (ln)” value (30 °C) is -1.04 ± 0.2 and the “self-splicing fitness (ln)” value (37 °C) was 0.567 ± 0.21. Consider UACCAGCAAUAUUACGGUAG, for which the “self-splicing fitness (ln)” value was -2.15 ± 0.086 (30 °C) and -1.16 ± 0.083 (37 °C). Turning to CUGAAGCAAUAUUACGAUCA, the “self-splicing fitness (ln)” value by setting is: (30 °C) -1.68 ± 0.13; (37 °C) -1.53 ± 0.13.

CUAAAGCAAUAUUACGCAAC: the “self-splicing fitness (ln)” value is -3.32 ± 0.29 (30 °C) and -3.03 ± 0.38 (37 °C).

As to AUCUAGCAAUAUUACGGCAA, the “self-splicing fitness (ln)” value reads like this: (30 °C) -0.584 ± 0.14; (37 °C) -0.113 ± 0.14. In the same order, the values of AAUUAGCAAUAUUACGCACC are -0.701 ± 0.15 and 0.362 ± 0.17. In the same order, the values of UCAUAGCAAUAUUACGCGCC are -3.62 ± 0.44 and -1.88 ± 0.33. In the case of GAUAAGCAAUAUUACGUGAU, the “self-splicing fitness (ln)” value was -2.21 ± 0.12 (30 °C) and -0.957 ± 0.12 (37 °C). For the sequence UGGAAGCAAUAUUACGGCAC, the “self-splicing fitness (ln)” value (37 °C) is -1.36 ± 0.37. With AAAGAGCAAUAUUACGACAU, the “self-splicing fitness (ln)” value runs as follows: (30 °C) -1.897 ± 0.015; (37 °C) -1.26 ± 0.034. In the same order, the values of GGUUAGCAAUAUUACGACGA are -1.15 ± 0.18 and 0.349 ± 0.21. The corresponding values for GAGGAGCAAUAUUACGCAUG are -3.19 ± 0.48 and -2.65 ± 0.3. The corresponding values for CUACAGCAAUAUUACGUCUU are -4.14 ± 0.24 and -3.48 ± 0.25. Turning to GAGAAGCAAUAUUACGCACC, the “self-splicing fitness (ln)” value was -1.91 ± 0.28 (30 °C) and -1.41 ± 0.42 (37 °C).

On to CCGGAGCAAUAUUACGAUGU, for which the “self-splicing fitness (ln)” value reads like this: (30 °C) -1.72 ± 0.14; (37 °C) -0.726 ± 0.17.

Take CUCUAGCAAUAUUACGCUUA: the “self-splicing fitness (ln)” value reads like this: (30 °C) -4 ± 0.37; (37 °C) -3.06 ± 0.27. In the same order, the values of GCAGAGCAAUAUUACGGAAG are -2.98 ± 0.28 and -1.65 ± 0.18.

As for CCCGAGCAAUAUUACGAACG, where the note is “37 °C”, the “self-splicing fitness (ln)” value is -1.84 ± 0.44. As for GUGUAGCAAUAUUACGUAGA, the “self-splicing fitness (ln)” value is -3.14 ± 0.25 (30 °C) and -1.8 ± 0.36 (37 °C).

On to UCCUAGCAAUAUUACGGGGC, for which the “self-splicing fitness (ln)” value was -3.1 ± 0.23 (30 °C) and -2.77 ± 0.32 (37 °C). In the same order, the values of UUAUAGCAAUAUUACGAUUG are -1.01 ± 0.13 and -0.505 ± 0.2.

In the case of UACUAGCAAUAUUACGUGUU, the “self-splicing fitness (ln)” value was -3.16 ± 0.15 (30 °C) and -0.975 ± 0.13 (37 °C). The corresponding values for AACGAGCAAUAUUACGCUUG are -2.67 ± 0.17 and -2.99 ± 0.29. For the sequence CGCUAGCAAUAUUACGCUGG, the “self-splicing fitness (ln)” value is, setting by setting: (30 °C) -2.63 ± 0.28; (37 °C) -1.85 ± 0.36. In the same order, the values of GAAGAGCAAUAUUACGCAAU are -3.87 ± 0.2 and -1.65 ± 0.13. Take GAAAAGCAAUAUUACGUUAU: the “self-splicing fitness (ln)” value reads like this: (30 °C) -1.67 ± 0.07; (37 °C) -0.868 ± 0.088. In the case of UGCAAGCAAUAUUACGCCAG, the “self-splicing fitness (ln)” value (30 °C) is -2.88 ± 0.19 and the “self-splicing fitness (ln)” value (37 °C) was -1.9 ± 0.26. The corresponding values for CGACAGCAAUAUUACGUUGG are -2.92 ± 0.1 and -1.54 ± 0.1. The corresponding values for CACCAGCAAUAUUACGCGCG are -0.00123 ± 0.053 and 0.499 ± 0.069. The corresponding values for UAGCAGCAAUAUUACGAGCC are -2.62 ± 0.23 and -1.9 ± 0.3.

In the case of AUACAGCAAUAUUACGCGCG, the “self-splicing fitness (ln)” value is -0.869 ± 0.1 (30 °C) and -1.07 ± 0.093 (37 °C). In the same order, the values of AUUGAGCAAUAUUACGGUGA are -2.89 ± 0.28 and -1.48 ± 0.22. The corresponding values for GAUCAGCAAUAUUACGACCG are -1.01 ± 0.11 and -0.323 ± 0.14. In the same order, the values of UGACAGCAAUAUUACGCUAC are -2.24 ± 0.43 and -1.56 ± 0.26. As to UUGUAGCAAUAUUACGAUUC, the “self-splicing fitness (ln)” value is, setting by setting: (30 °C) -3.76 ± 0.34; (37 °C) -3.2 ± 0.3. As for GUUUAGCAAUAUUACGUUUU, the “self-splicing fitness (ln)” value (30 °C) is -2.72 ± 0.14 and the “self-splicing fitness (ln)” value (37 °C) was -1.65 ± 0.18. The corresponding values for GAGGAGCAAUAUUACGAGUG are -2.88 ± 0.35 and -2.5 ± 0.23.
